{
  "source": "paper PMC2927421",
  "about": "“Tyrosine-Phosphorylated Caveolin-1 Blocks Bacterial Uptake by Inducing Vav2-RhoA-Mediated Cytoskeletal Rearrangements” (PLoS Biology, 2010)",
  "molecules": {"B1": {"name": "fluorescently labeled Tyr14-Cav1 phosphopeptide (residues 5-22 of Cav1, phosphorylated on Tyr14) (peptide, UniProt Q03135 5-22, looked up)", "peptide": "KYVDSEGHL[pY]TVPIREQG", "modifications": "also: fluorescent label (position not given here)", "notes": "caveolin-1 (Cav1), human, residues 5-22; also called Tyr14-Cav1 phosphopeptide (18 amino acids); source: synthetic peptide, purified to >95% by preparative reverse phase HPLC"}},
  "key": {"Vav2": {"molecular_target": "Vav2 (UniProt P52735)", "assay": "biotin-peptide streptavidin pull-down from lysate", "conditions": "reference: non-phosphorylated peptide; sites Y14"}, "[1]": {"molecular_target": "Phospholipase Cγ1 (PLCγ1) (UniProt P19174)", "assay": "biotin-peptide streptavidin pull-down from lysate", "conditions": "reference: non-phosphorylated peptide; sites Y14"}, "[2]": {"molecular_target": "T1, SH2 domain of Abl1 (recombinant, on protein microarray) (human, UniProt P00519 127-217)", "T1 chain": "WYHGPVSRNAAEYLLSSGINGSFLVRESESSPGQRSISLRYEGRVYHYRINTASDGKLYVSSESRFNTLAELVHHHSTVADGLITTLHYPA"}, "[3]": {"molecular_target": "T2, SH2 domain of SH2D3C (recombinant, on protein microarray) (human, UniProt Q8N5H7 220-319)", "T2 chain": "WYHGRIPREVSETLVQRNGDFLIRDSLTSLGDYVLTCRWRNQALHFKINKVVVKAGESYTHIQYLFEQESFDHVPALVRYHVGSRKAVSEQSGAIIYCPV"}, "[4]": {"molecular_target": "T3, SH2 domain of Abl2 (recombinant, on protein microarray) (human, UniProt P42684 173-263)", "T3 chain": "T1 chain with N9S, G18L, R35L, A53T, S54A, L58V, S61T, S62A, N67S, I84V"}, "[5]": {"molecular_target": "T4, SH2 domain of Grb10 (recombinant, on protein microarray) (human, UniProt Q13322 493-574)", "T4 chain": "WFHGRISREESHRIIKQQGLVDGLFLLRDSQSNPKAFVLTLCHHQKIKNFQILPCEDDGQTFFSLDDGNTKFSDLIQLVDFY"}, "[6]": {"molecular_target": "T5, SH2 domain of Grb10 (recombinant, on protein microarray) (human, UniProt Q13322 493-574)", "T5 construct": "Grb10, human, SH2 domain", "T5 sequence (looked up)": "T4 chain", "assay": "peptide or protein array; recombinant human SH2 and PTB domains spotted on protein microarrays; probed in duplicate with eight concentrations of fluorescently labeled peptide, 10 nM to 5 µM; fluorescence fit to a saturation binding equation", "conditions": "both partners purified"}, "[7]": {"molecular_target": "T6, SH2 domain of Abl1 (recombinant, on protein microarray) (human, UniProt P00519 127-217)", "T6 construct": "Abl1, human, SH2 domain", "T6 sequence (looked up)": "T1 chain", "assay": "peptide or protein array; recombinant human SH2 and PTB domains spotted on protein microarrays; probed in duplicate with eight concentrations of fluorescently labeled peptide, 10 nM to 5 µM; fluorescence fit to a saturation binding equation", "conditions": "both partners purified"}, "[8]": {"molecular_target": "T7, SH2 domain of the RhoA GEF Vav2 (recombinant, on protein microarray) (human, UniProt P52735 673-767)", "T7 construct": "Vav2, human, SH2 domain", "T7 sequence (looked up)": "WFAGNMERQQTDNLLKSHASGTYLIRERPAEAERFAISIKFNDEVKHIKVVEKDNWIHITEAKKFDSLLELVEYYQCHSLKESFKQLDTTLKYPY", "assay": "peptide or protein array; recombinant human SH2 and PTB domains spotted on protein microarrays; probed in duplicate with eight concentrations of fluorescently labeled peptide, 10 nM to 5 µM; fluorescence fit to a saturation binding equation", "conditions": "both partners purified"}, "[9]": {"molecular_target": "T8, SH2 domain of Phospholipase Cγ1 (recombinant, on protein microarray) (human)", "T8 chain": "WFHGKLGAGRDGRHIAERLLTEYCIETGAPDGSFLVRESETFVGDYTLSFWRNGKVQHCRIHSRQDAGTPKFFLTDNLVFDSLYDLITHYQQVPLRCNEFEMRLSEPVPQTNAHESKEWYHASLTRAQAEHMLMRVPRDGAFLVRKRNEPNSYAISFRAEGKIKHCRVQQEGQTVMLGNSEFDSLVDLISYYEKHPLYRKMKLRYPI", "assay": "peptide or protein array; recombinant human SH2 and PTB domains spotted on protein microarrays; probed in duplicate with eight concentrations of fluorescently labeled peptide, 10 nM to 5 µM; fluorescence fit to a saturation binding equation", "conditions": "both partners purified"}, "[10]": {"molecular_target": "T9, SH2 domain of Abl2 (recombinant, on protein microarray) (human, UniProt P42684 173-263)", "T9 construct": "Abl2, human, SH2 domain", "T9 sequence (looked up)": "T1 chain with N9S, G18L, R35L, A53T, S54A, L58V, S61T, S62A, N67S, I84V", "assay": "peptide or protein array; recombinant human SH2 and PTB domains spotted on protein microarrays; probed in duplicate with eight concentrations of fluorescently labeled peptide, 10 nM to 5 µM; fluorescence fit to a saturation binding equation", "conditions": "both partners purified"}, "[11]": {"molecular_target": "T10, SH2 domain of SH2D3C (recombinant, on protein microarray) (human, UniProt Q8N5H7 220-319)", "T10 construct": "SH2D3C, human, SH2 domain", "T10 sequence (looked up)": "T2 chain", "assay": "peptide or protein array; recombinant human SH2 and PTB domains spotted on protein microarrays; probed in duplicate with eight concentrations of fluorescently labeled peptide, 10 nM to 5 µM; fluorescence fit to a saturation binding equation", "conditions": "both partners purified"}, "[12]": {"molecular_target": "T11, SH2 domain of Phospholipase Cγ1 (recombinant, on protein microarray) (human)", "T11 chain": "T8 chain", "assay": "tandem NC SH2 domains"}, "RasA1": {"molecular_target": "T12, RasA1 (Homo sapiens)", "T12 chain": "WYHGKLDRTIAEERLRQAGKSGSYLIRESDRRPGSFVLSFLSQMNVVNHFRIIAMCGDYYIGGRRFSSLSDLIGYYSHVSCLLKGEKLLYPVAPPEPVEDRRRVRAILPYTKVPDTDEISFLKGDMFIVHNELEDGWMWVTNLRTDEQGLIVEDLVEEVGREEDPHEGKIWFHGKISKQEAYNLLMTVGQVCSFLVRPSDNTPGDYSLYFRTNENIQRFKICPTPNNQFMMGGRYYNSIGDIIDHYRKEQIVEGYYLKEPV"}},
  "note": "Residue numbers refer to the chain shown, from its start. Read-outs that look alike come from different tables or passages of the source. Where no end group is shown, it is not given here. [ ]: non-standard residue; d: D form. pY = N[C@@H](Cc1ccc(OP(=O)(O)O)cc1)C(=O)O",
  "data": [
    {"molecule": "caveolin-1 (Cav1) 7-21 (from UniProt Q03135) pTyr14 peptide", "values": [
      {"measurement": "binding against the reference", "setting": "Vav2", "value": "stronger"},
      {"measurement": "binding against the reference", "setting": "[1]", "value": "stronger"}
    ]},
    {"molecule": "B1", "values": [
      {"measurement": "Kd", "setting": "[2]", "value": 1640, "unit": "nM"},
      {"measurement": "Kd", "setting": "[3]", "value": 874, "unit": "nM"},
      {"measurement": "Kd", "setting": "[4]", "value": 58, "unit": "nM"},
      {"measurement": "Kd", "setting": "[5]", "value": 1370, "unit": "nM"},
      {"measurement": "Kd", "setting": "[6]", "value": "< 2000", "unit": "nM"},
      {"measurement": "Kd", "setting": "[7]", "value": "< 2000", "unit": "nM"},
      {"measurement": "Kd", "setting": "[8]", "value": 222, "unit": "nM"},
      {"measurement": "Kd", "setting": "[9]", "value": "< 2000", "unit": "nM"},
      {"measurement": "Kd", "setting": "[10]", "value": "< 2000", "unit": "nM"},
      {"measurement": "Kd", "setting": "[11]", "value": "< 2000", "unit": "nM"},
      {"measurement": "Kd", "setting": "[12]", "value": 482, "unit": "nM"}
    ]},
    {"molecule": "KYVDSEGHLYTVPIREQG (also: fluorescent label (position not given here))", "note": "[fluorescently labeled non-phosphorylated Cav1 peptide (residues 5-22 of Cav1)]", "values": [
      {"measurement": "Kd", "setting": "RasA1", "value": 1390, "unit": "nM"}
    ]}
  ]
}
